T1: murine SIRPα on U2OS cells (mouse, UniProt P97797 32-513)
T1 construct: whole, on cells; also called mouse SIRPα
T1 sequence (looked up): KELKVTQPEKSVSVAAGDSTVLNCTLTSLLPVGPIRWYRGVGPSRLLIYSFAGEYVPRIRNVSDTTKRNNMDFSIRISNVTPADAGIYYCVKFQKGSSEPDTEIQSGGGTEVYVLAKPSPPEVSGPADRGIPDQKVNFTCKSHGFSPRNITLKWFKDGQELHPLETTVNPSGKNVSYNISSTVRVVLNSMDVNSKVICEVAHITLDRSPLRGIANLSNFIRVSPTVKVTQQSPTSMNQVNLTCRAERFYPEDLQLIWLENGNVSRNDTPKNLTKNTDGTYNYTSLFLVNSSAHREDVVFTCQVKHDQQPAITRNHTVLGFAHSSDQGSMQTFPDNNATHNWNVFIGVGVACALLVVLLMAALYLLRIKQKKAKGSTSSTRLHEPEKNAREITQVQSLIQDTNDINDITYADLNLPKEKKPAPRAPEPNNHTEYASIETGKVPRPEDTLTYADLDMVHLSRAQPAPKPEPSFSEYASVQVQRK


Key:
[1] = biological target: T1, murine SIRPα on U2OS cells; experiment: live-cell immunofluorescence on U2OS cells transiently expressing murine SIRPα
Method: (§1) Stably expressing hSIRPα U2OS cells, U2OS wt or U2OS cells transiently expressing individual hSIRPα domains (D1-3) with SPOT-Tag or different hSIRP family members (hSIRPα-V1, hSIRPα-V2, hSIRPβ1, hSIRPγ, murine SIRPα) were plated at ˜10,000 cells per well of a μClear 96-well plate (Greiner Bio One, cat. #655090) and cultivated overnight at standard conditions. For imaging, medium was replaced by live-cell visualization medium DMEMgfp-2 (Evrogen, cat. #MC102) supplemented with 10% FBS, 2 mM L-glutamine, 2 μg/ml Hoechst33258 (Sigma Aldrich) for nuclear staining. 1-100 nM of unlabeled hSIRPα Nbs in combination with 2.5 μg/ml anti-VHH secondary Cy5 AffiniPure Goat Anti-Alpaca IgG (Jackson Immuno Research) were added and incubated for 1 h at 37° C. For control staining hSIRPα Ab PE (SE5A5, BioLegend) and bivSPOT-Nb labeled with AlexaFluor647 (AF647) were used. Images were acquired with a MetaXpress Micro XL system (Molecular Devices) at 20× or 40× magnification.
(§2) Moreover, with hSIRPαV1 and hSIRPαV2, two isoforms are expressed either homozygously (v1/v1 or v2/v2) or heterozygously (v1/v2), and the frequency of distribution varies between human subpopulations (Sim et al., “Discovery of high affinity, pan-allelic, and pan-mammalian reactive antibodies against the myeloid checkpoint receptor SIRPα”, MAbs. Taylor & Francis (2019) pp. 1036-1052). To address the question of specificity, hSIRPβ1, hSIRPγ or the hSIRPα polymorphisms hSIRPα-V1 and hSIRPα-V2 were transiently expressed in U2OS cells and their recognition was analyzed by the selected hSIRPα Nbs by immunofluorescence staining. In addition, murine SIRPα was included to evaluate potential cross-reactivity between human and mouse SIRPα variants (FIG. 3A; data not shown).

[2] = biological target: T2, recombinant hSIRPα (extracellular portion) (human, UniProt P78324 31-373, biotinylated with Sulfo-NHS-LC-LC-Biotin where immobilised on streptavidin sensors); experiment: BLI, biotinylated hSIRPα immobilised on streptavidin biosensors, Nb in solution, global 1:1 fit
T2 construct: extracellular domain; The limits aa31-370 are stated for the immunogen; The BLI and HDX text says only 'recombinant hSIRPα' / 'biotinylated hSIRPα'; also called biotinylated hSIRPα
T2 sequence (P78324 31-373): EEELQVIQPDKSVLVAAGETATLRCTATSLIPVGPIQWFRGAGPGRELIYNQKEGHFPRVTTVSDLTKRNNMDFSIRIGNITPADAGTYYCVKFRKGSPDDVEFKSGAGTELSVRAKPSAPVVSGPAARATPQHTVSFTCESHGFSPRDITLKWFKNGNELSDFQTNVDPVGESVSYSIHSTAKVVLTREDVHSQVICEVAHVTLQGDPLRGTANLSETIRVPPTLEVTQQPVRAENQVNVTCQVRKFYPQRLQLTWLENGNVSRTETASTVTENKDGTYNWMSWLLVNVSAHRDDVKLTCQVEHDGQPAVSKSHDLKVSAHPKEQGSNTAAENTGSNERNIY
Method: (§3) Biotinylated hSIRPα was immobilized on streptavidin biosensors.
(§4) Analysis of binding kinetics of hSIRPα specific Nbs was performed using the Octet RED96e system (Sartorius) as per the manufacturer's recommendations. In brief, […] of biotinylated hSIRPα diluted in Octet buffer (PBS, 0.1% BSA, 0.02% Tween20) was immobilized on streptavidin coated biosensor tips (SA, Sartorius) for 40 s. In the association step, a dilution series of Nbs ranging from 0.625-320 nM were reacted for 240 s followed by dissociation in Octet buffer for 720 s. Every run was normalized to a reference run applying Octet buffer for association. Data were analyzed using the Octet Data Analysis HT 12.0 software applying the 1:1 ligand-binding model and global fitting. For epitope binning two consecutive association steps with different Nbs were performed. By analyzing the binding behavior of the second Nb, conclusions about shared epitopes were drawn. For the hCD47 competition assay hCD47 was biotinylated and immobilized on SA biosensors followed by the application of pre-mixed solutions containing hSIRPα (20 nM) and Nb (250 nM). As control the hCD47-competing Ab KWAR23 (5 nM) was used.

hSIRPγ on U2OS cells [3] = biological target: T3, hSIRPγ on U2OS cells (human, UniProt Q9P1W8 29-387); experiment: live-cell immunofluorescence on U2OS cells transiently expressing hSIRPγ, detection with anti-VHH-Cy5
T3 construct: whole, on cells; also called SIRP gamma
T3 sequence (Q9P1W8 29-387): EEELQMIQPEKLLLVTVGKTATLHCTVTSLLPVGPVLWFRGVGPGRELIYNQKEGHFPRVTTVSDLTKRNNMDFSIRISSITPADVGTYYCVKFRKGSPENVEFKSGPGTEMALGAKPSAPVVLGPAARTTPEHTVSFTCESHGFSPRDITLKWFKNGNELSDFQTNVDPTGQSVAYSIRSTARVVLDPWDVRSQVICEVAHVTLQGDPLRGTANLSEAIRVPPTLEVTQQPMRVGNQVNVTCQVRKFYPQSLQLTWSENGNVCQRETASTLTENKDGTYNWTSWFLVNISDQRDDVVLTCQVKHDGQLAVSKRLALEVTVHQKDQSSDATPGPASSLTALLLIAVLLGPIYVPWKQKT
Method: (§5) Data are presented as mean±SD of three technical replicates.
as §1, §2

hSIRPα-V2 on U2OS cells = biological target: T4, hSIRPα-V2 on U2OS cells (human, UniProt P78324 31-504); experiment: live-cell immunofluorescence on U2OS cells transiently expressing hSIRPα-V2, detection with anti-VHH-Cy5
T4 construct: whole, on cells
T4 sequence (P78324 other isoform, or with tags, fused parts or gaps limits assumed): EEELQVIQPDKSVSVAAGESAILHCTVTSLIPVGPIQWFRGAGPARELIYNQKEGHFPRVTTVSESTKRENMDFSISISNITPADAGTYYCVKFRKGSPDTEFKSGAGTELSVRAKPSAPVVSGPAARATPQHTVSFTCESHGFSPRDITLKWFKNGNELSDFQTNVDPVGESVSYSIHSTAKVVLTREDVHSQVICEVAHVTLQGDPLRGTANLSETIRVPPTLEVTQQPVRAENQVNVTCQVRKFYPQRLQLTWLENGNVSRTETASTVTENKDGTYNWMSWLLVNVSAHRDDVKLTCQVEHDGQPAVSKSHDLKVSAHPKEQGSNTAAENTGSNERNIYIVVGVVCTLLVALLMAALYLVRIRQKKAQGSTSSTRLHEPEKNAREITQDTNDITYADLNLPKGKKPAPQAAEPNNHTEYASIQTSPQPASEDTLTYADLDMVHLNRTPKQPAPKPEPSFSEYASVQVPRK
Method: as §5
Stably expressing hSIRPα U2OS cells, U2OS wt or U2OS cells transiently expressing individual hSIRPα domains (D1-3) with SPOT-Tag or different hSIRP family members (hSIRPα-V1, hSIRPα-V2, hSIRPβ1, hSIRPγ, murine SIRPα) were plated at ˜10,000 cells per well of a μClear 96-well plate (Greiner Bio One, cat. #655090) and cultivated overnight at standard conditions. For imaging, medium was replaced by live-cell visualization medium DMEMgfp-2 (Evrogen, cat. #MC102) supplemented with 10% FBS, 2 mM L-glutamine, 2 μg/ml Hoechst33258 (Sigma Aldrich) for nuclear staining. […]
(§6) Moreover, with hSIRPαV1 and hSIRPαV2, two isoforms are expressed either homozygously (v1/v1 or v2/v2) or heterozygously (v1/v2), and the frequency of distribution varies between human subpopulations (Sim et al., “Discovery of high affinity, pan-allelic, and pan-mammalian reactive antibodies against the myeloid checkpoint receptor SIRPα”, MAbs. Taylor & Francis (2019) pp. 1036-1052). To address the question of specificity, hSIRPβ1, hSIRPγ or the hSIRPα polymorphisms hSIRPα-V1 and hSIRPα-V2 were transiently expressed in U2OS cells and their recognition was analyzed by the selected hSIRPα Nbs by immunofluorescence staining. […]

[4] = biological target: T2, recombinant hSIRPα (extracellular …); experiment: BLI, biotinylated hSIRPα immobilised on streptavidin biosensors, chelator conjugated S36K>R at 1.25-10 nM
Method: Biotinylated hSIRPα was immobilized on streptavidin biosensors. Kinetic measurements were performed by using four concentrations of purified Nbs ranging from 1.25 nM to 10 nM; (E) Stability analysis of chelator conjugated hSIRPα-S36_{K>R} Nb by nanoDSF as fluorescence ratios (350 nm/330 nm) and light intensity loss due to scattering illustrated as first derivative before (To) and after 10 days of accelerated aging at 37° C. (T₁₀); and (F) Phagocytosis of DLD-1 cells by human monocyte-derived macrophages treated with anti-EGFR cetuximab and chelator conjugated hSIRPα-S36_{K>R} Nb. Analysis of phagocytosis of hSIRPα-S36_{K>R} Nb in combination with cetuximab of three different donors (K1, K2, K3). Data are presented as mean±SD of three technical replicates. And
Analysis of binding kinetics of hSIRPα specific Nbs was performed using the Octet RED96e system (Sartorius) as per the manufacturer's recommendations. In brief, […] of biotinylated hSIRPα diluted in Octet buffer (PBS, 0.1% BSA, 0.02% Tween20) was immobilized on streptavidin coated biosensor tips (SA, Sartorius) for 40 s. In the association step, a dilution series of Nbs ranging from 0.625-320 nM were reacted for 240 s followed by dissociation in Octet buffer for 720 s. […] Data were analyzed using the Octet Data Analysis HT 12.0 software applying the 1:1 ligand-binding model and global fitting. […]

hSIRPβ1 on U2OS cells = biological target: T5, hSIRPβ1 on U2OS cells (human, UniProt O00241 30-398); experiment: immunofluorescence on U2OS cells transiently expressing hSIRPβ1
T5 construct: whole, on cells; also called SIRP beta
T5 sequence (O00241 30-398): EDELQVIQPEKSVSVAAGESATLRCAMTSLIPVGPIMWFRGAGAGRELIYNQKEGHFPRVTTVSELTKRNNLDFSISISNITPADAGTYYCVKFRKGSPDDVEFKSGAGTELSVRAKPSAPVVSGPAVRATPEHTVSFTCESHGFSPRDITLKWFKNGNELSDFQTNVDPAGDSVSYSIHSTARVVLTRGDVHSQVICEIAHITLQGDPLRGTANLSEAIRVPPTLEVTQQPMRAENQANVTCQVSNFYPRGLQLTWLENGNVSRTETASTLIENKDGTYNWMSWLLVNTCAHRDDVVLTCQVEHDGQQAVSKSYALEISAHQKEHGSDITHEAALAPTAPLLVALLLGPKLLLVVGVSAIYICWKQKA
Method: as §1, with “For control staining hSIRPα Ab PE (SE5A5, BioLegend) and bivSPOT-Nb labeled with AlexaFluor647 (AF647) were used. Images were acquired with a MetaXpress Micro XL system (Molecular Devices) at 20× or 40× magnification.” left out
as §6

[5] = biological target: T2, recombinant hSIRPα (extracellular …); experiment: BLI, biotinylated hSIRPα immobilised on streptavidin biosensors, S36 at 0.625-5 nM, global 1:1 fit
Method: as §3, §4

hSIRPγ on U2OS cells [6] = biological target: T3, hSIRPγ on U2OS cells; experiment: immunofluorescence on U2OS cells transiently expressing hSIRPγ
Method: as §1, with “For control staining hSIRPα Ab PE (SE5A5, BioLegend) and bivSPOT-Nb labeled with AlexaFluor647 (AF647) were used. Images were acquired with a MetaXpress Micro XL system (Molecular Devices) at 20× or 40× magnification.” left out
as §6

Row | binding result [1] | Kd [2] [nM] | koff [2] [s⁻¹] | kon [2] [M⁻¹ s⁻¹] | Kd [4] [nM] | binding result (hSIRPβ1 on U2OS cells) | Kd [5] [nM] | binding result (hSIRPγ on U2OS cells [6]) | Binder | binding result (hSIRPγ on U2OS cells [3]) | binding result (hSIRPα-V2 on U2OS cells)
1 | no binding (tested: 1-100 nM) | 0.46 | 0.0009 | 2.04e+06 |  |  |  |  | hSIRPα nanobody S8 (VHH, Purified by IMAC; the tag is not described; also called Nb S8) VHH: QVQLVESGGGLVQPGGSLRLSCADSEFRLDEYATGWFRQAPGKEREGVACISRSGSNTKYTDSVKGRFTISRDNAKKTVYLQMNSLKPEDTAVYYCAADLTSHYLSCSSYTDYNSWGQGTQVTVSS |  | 
2 |  | 5.65 | 0.00383 | 678000 |  |  |  |  | hSIRPα nanobody S41 (VHH, The single assignment S41 = 26 follows only from the listing order; also called Nb S41) VHH: HVQLVESGGGLVQPGGSLRLSCAASGETLDYYAIGYVRQAPGKEREGVSCISSRGDNTNYADSVKGRFTISRDNANNTVYLQMNSLKPEDTAVYYCVAIKDSWQNYYCSVGWVEYDVWGQGTQVTVSS |  | 
3 | no binding (tested: 1-100 nM) | 2.53 | 0.00164 | 646000 |  |  |  |  | hSIRPα nanobody S45 (VHH, also called Nb S45) VHH: HVQLVESGGGLVQPGGSLRLSCAARGFSFRDSAMSWARQAPGKGLEWVGAIYSDGSTVYEKSVKGRFTISRDNAKNTMYLQMHSLKPEDSARYYCAPKGVVADEGDYSGQGTLVTVSS | no binding (tested: not on the sheet; 1-100 nM per paragraph 140) | 
4 | no binding (tested: 1-100 nM) | 20 | 0.00544 | 267000 |  |  |  |  | hSIRPα nanobody S33 (VHH, also called Nb S33) VHH: EVQLVESGGGLVQPGGSLRLSCTTSGFTLDYYSVGWFRQAPGKEREGVSCITASGSSTNYANSVKGRFTISRDKVKNTVYLQMSSLKPEDTAVYYCAAEPCTVVAGILQAPTSDFGSWGQGTQVTVSS | no binding (tested: not on the sheet; 1-100 nM per paragraph 140) | 
5 | no binding (tested: 1-100 nM) | 4.61 | 0.00915 | 1.99e+06 |  |  |  |  | hSIRPα nanobody S44 (VHH, also called Nb S44) VHH: QVQLQESGGGLVQPGGSLRLACAASGFTFSSYDMSWVRQAPGKGLEWVSDIKSGGGRTYYADSVKGRFTISRDNAKNTVYLQMNSLKPEDTAVYYCGSLDNSGAYTGGGQGSQVTVSS |  | no binding (tested: not on the sheet; 1-100 nM per paragraph 140)
6 | no binding (tested: 1-100 nM) | 20 | 0.0123 | 610000 |  |  |  |  | hSIRPα nanobody S7 (VHH, Expressed from pHEN6 in E. coli and purified by IMAC; the tag is not described; also called Nb S7) VHH: HVQLVESGGGLVQVGDSLRLSCAPSGRTFRAYAMAWFRQAPGKEREFVAAIRWIGGTPSYKDSVKGRFTISRDNARNTFYLQMNSLEPQDTGVYYCAAEETQKGSGLGHDGRHYDYWGQGTPVTVSS | no binding (tested: not on the sheet; 1-100 nM per paragraph 140) | 
7 | no binding (tested: 1-100 nM) | 25.9 | 0.0127 | 490000 |  |  |  |  | hSIRPα nanobody S12 (VHH, also called Nb S12) VHH: QVQLVESGGGLVQPGGSLRLSCLVSGFSSSYYAIGWFRQAPGKEREGVSCITRSGDTTNYADSVKGRFTISRDDARNTVYLQMNSLKTEDTAVYSCALWAWAGSGRLRCTASEYGHWGQGTQVTVSS |  | no binding (tested: not on the sheet; 1-100 nM per paragraph 140)
8 |  |  |  |  | 0.19 |  |  |  | chelator conjugated hSIRPα-S36K>R Nb (VHH, p-NCS-benzyl-NODA-GA chelator conjugated to the single remaining primary NH2-group at the N-terminus) VHH: EVQLVESGGGLVQPGGSLRLSCAASGFTLDYYAIGWFRQVPGREREGVSCISSDGGGNTYYADSVRGRFTISRDNARNTVYLQMNSLRPEDSAVYSCAAGPTYYSGSYCRDPHSDYDYWGQGTQVTVSS |  | 
9 | no binding (tested: 1-100 nM) | 0.12 | 0.0002 | 1.52e+06 |  | binds | 0.12 | binds | hSIRPα nanobody S36 (VHH, also called Nb S36; hSIRPα-S36 Nb) VHH: EVQLVESGGGLVQPGGSLRLSCAASGFTLDYYAIGWFRQVPGKEREGVSCISSDGGGNTYYADSVKGRFTISRDNAKNTVYLQMNSLKPEDSAVYSCAAGPTYYSGSYCRDPHSDYDYWGQGTQVTVSS |  | 
